Test results as given in the nanobody polyreactivity screen of Harvey et al. (2022).

test: yeast display, Sf9 membrane polyspecificity reagent, FACS + sequencing; frameworks hold sequencing errors
Procedure, shortened: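 Nanobodies came from a synthetic yeast display library in Saccharomyces cerevisiae BJ5465, induced with galactose for 36–48 hours and stained for 1 hour at 4 °C with 10% biotinylated, detergent-solubilized Sf9 membrane reagent. Cells were enriched on streptavidin microbeads and then FACS-sorted, with low and high (top ~1%) gates set on anti-HA fluorescence for expression and streptavidin fluorescence for reagent binding. Each polyreactivity label reflects the gate a clone came from. Genes were amplified by colony PCR, sequenced by MiSeq 2 × 250 and filtered by CDR length.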

Sequence	polyreactivity (PSR sort gate)
QVQLVESGGGLVQAGGSLRLSCAASGSIFLFYTMGWYRQATGKERELVAAISYSGGNTYYADSVKGRFTISRDNATNTVYLQMNSLKPEDTAVYYCNVRTQWARYDYWRQGTQVTVSS	high polyreactivity
QVQLVESGGGLVQAGGSLRLSCAASGSTFYLNAMGWYRQAPGKERELVAAISSGGRTYYADSVKGRFTISRDNAKNTVYLQMNSLKPEDTAVYYCNAVRYLRGAYNYWGQGTQVTVSS	high polyreactivity
QVQLVESGGGLVQAGGSLRLSCAASGSIFYGNAMGWYRQAPGKERELVAAISTRGGSTYYADSVKGRFTISRDYAKNTVYLQMNSLKPEDTAVYYCNADSRRRLFDYWGQGTQVTVSS	high polyreactivity
QVQLVESGGGLVQAGGSLRLSCAASGRTLARNAMGWYRQAPGKERELVASINGRTTRTYYADSVKGRFTISRDNAKNTVYLQMNSLKPEDPAVYYCAARATNVYSKMDYWGQGTQVTVSS	high polyreactivity
QVQLVESGGGLVQAGGSLRLSCAASGFIIYRYAMGWYRQAPGKEWELVAAISKRGGSTYYADSVKGRFTISRDNAKNTVYLQMNSLKPEDTAVYYCAANRSYVDSTSFGKAYGYWGQGTQVTVSS	high polyreactivity
QVQLVESGGGLVQAGGSLRLSCAASGITFEGYAMRWYRQAPGKERELVAAITGSGSTTYYADSVKGRFTISRDNAKNTVYLQMNSLKPEDTAVYYCAADVSYKLYWGQGTQVTVSS	low polyreactivity
QVQLVESGGALVQAGGSLRLSCAASGITFYFYAMGWYIHAPGKEWELVAAIRSSGDSTYYADSVKGRFTISRDNAKNTVYLQMNSRKPEDTAVYYCAAYSHHQFSRSEYYYWGQGTQVTVSS	low polyreactivity
QVQLVESGGGLVQAGGSLRLSCAASGSIFSVYARGSYRQAPGKERELVAGITRGGSTYADSVKGRFTISRDNAKNPVYLQMNSLKPEDTAVYYCNAQTRIVKDRLRSDYWGQGTQVTVSS	high polyreactivity
QVQLVESGGGLVQAGGSLSLSCAASGSIFVYKAMGWYRPAHGKERELVAAISSSGGSTYYADSVKGRFTISRDNAKNTVYLQMNSLKPEDTAVYYCAAEAVRKVPSYYSYAYYYWGQGTQVTVSS	high polyreactivity
QVQLVESGGGLVQAGGSLRLSCAASGSNYSGYTMGWYRQAPGKERELVAAISYRGGRTYYADSVKGRFTISRDNAKNTVYFLMNSLKPEDTAVYYCNAAPYITRRHDYWGQGTLVTVSS	high polyreactivity
QVQLEESGGGLVQAGGSLRLSCAASGFTIRLYARGWYRQAPGKVRELVAAITSGGSTYADSVKGRFTISRDNAKNTVYLQMNSLKPEDTAVNYCAAVSRYWAKYEYWGQGTQVTVSS	high polyreactivity
QVQLVESGGGLVQAGGSLRLSCASSGLTFKQYAMVWYRQAPGKERELVAAITVSGGDTYYADSVKGRFTISRDNAKNTVYLQMNSLKPEDTAVYYCAAEHFFWGYDYWGQGTQVTVSS	high polyreactivity
QVQLVESGGGLVQAGGSLRLSCAASGSTFGWYAMVWYRQAPGKERELVAAIRNNDGRTYYADSVKGRFTISRDNAKNTVYLQMNSLKPEDTAVYYCNADYRSHYLYDYWGQGTQVTVSS	low polyreactivity
QDQLVESGGGLVQAGGSLRLSCAASGRLFDLNAMGWNRQAPGTERELVAVISWSGGITYYADSVKGRFTSSRDNAKNTVYLLMNSLKPEDTAVYYCNADTDFDPYYEFDYWGQGTQVTVSS	low polyreactivity
QVQLEESAGRLVQARGSLRLSCAASGSTFGYNAMGWDSQAPGKARELVAALTRRGGRTYYADSVKGRFTISRDNAKNTVYLQMNSLKPEDTAVYYCAATSRGSGQRPGEAIIDYYYWGQGTQVTVSW	high polyreactivity
QVQLVDSGGGLVQAGGSLRLSCAASGFIFAPYAMGWYRQAPGKERELVAAISSSGGSTYYADSVKGRFTISRDNAKNTVYLQMNSLKPEDTAVYYCAVDYLTLTYEYYYWGQGTQVTVSS	low polyreactivity
QVQLVESGGGLVQAGGSLRLSCAASGSILGYYAMGWYRQAPGKERELVAAITASGGSTYYADSVKGRFTISRDNAKNTVYLQMNSLKPEDTAVYYCAAQYYATYGYWGQGTQVTVSS	low polyreactivity
QVQLVESGGGLVQAGGSLRLSCAASGSIFHVNAMGWYRQAPGKERELVAGISDGGSTYYADSVKGRFTISRDNAKNTVYLQMNSLKPEDTAVYYCSADDGYTYYWAGYDSWGQGTQVTVSS	low polyreactivity
QVQLVESGGGLVQAGGSLRLSCAASGFTFYLYSMGWYRQAPGKERELVATITSDGGTNYADSVKGRFSISRDNAKNTVYLQMNSLTPEDTAVYYCNAASRRGSRKQAKYDYWGQGTQVTVSA	low polyreactivity
QVQLVESGGGLVQAGGSLRLSCAASGSTFRDYAMGWSRQAPGKERELVAVISSSGSRTNYADSVKGRFTISRDNAKNTVYLQMNSLKREDTAVYYCAADTTRRAPGYYYWGQGTQVTVSS	high polyreactivity
QVQHVESGGGLVQAGGSLRLSCAASGLTLKRNAMGWYRQAPGKERELVAAISGRGGSTYYADSVKGRFTISRDNAKNTVYLQMNSLKPEDTAVYYCAATVQYSPIYDYWGQGTQVTVSS	high polyreactivity
QVQLLESGGGLVQAGGSLRLSSAASGRIFLGYTMGWYRPAPGNERELVAAIRLSGGTTRYADSVKGRFTISRDNAKNTVYLQMYSLKPEDTAVYYCAARDRRTYSLYYWGQGSQVTVSS	high polyreactivity

Sequence	polyreactivity (PSR sort gate)
QVQLVESGGGLVQAGGSLRLSCAASGSIFDINAMGWYRQAPGKERELVAVITDSGSTYYADSVKGRFTISRDNAKNTVYLQMNSLKPEDTAVYYCAAESSLLFFLMDYWGQGTQVTVSS	low polyreactivity
QVQLVESGGGLVQAGGSLRLSCAASGNTFTTNAMGWYRQAPGKERELVAAIRWRADSTYYADSVKGRFTISRDNAKNTVYLQMNSLKPEDTAVYYCASRYSLRYYYWGQGTQVTVSS	low polyreactivity
QVQLVESGGGLVQAGGSLRLSCAASGGIFSVYAMGWYRQAPGKERELVAAITTSGGSTYYADSVKGRFTISRDNAKNTVYLQMNSLKPEDTAVYYCAADYPPTFYYWYEEYEYWGQGTQVTVSS	low polyreactivity
QVQLVESGGGLVQAGGSLRLSCAASGSIFLTNVMGWYRQAPGKERELVAAISSGGNTYYADSVKGRFTISRDNAKNTVYLQMNSLKPEDTAVYYCAVRYRYDYWGQGTQVTVSS	high polyreactivity
QVRLLETGGGLVQAGGSLRLSCAPSGSTFTDYDMGWYRPAPGKERELVAAITSGGSTNYADSVKGSFTISRDNAKNTVYLQMNRLKPEDTAVYYCAASYWDTEPGYREYDYWGQGTLVTVSS	low polyreactivity
QVQLVESGGGLVHAGGSLRLSCAASGITFERYAMGWYRQAPGKERELVAAITSSGGSTYYADSVKGRFTISRDNAKNTVYLQMNSLKPEDTAVYYCAARTAYTPRHDYWGQGTEVTVSS	high polyreactivity
QVQLVESGGGLVQAGGSLRLSCAASGLIFYTYAMGWYRQAPGKERELVADINRSDGSTYYADSVKGRFTISRDNAKNTVYLQMNRLKPEDTAVYYCAVVGPYYSRFGGRYYYWGQGTQVTVSS	low polyreactivity
QVQLVESGGGLVQAGGSLRLSCAASGYIIDNNSMAWYRQAPGKERELVASNTNSAGSTSYADSVKGRFTISRDNAKNTVYLQMNSLKPEDTAVYYCAAKRYHYFFPYSRRGAYGYWGQGTQVTVSS	high polyreactivity
QVQLVESGGGLVQAGGSLRLSCAASGFTFWGYGMGWYRQAPGKERELVAAISGSGGSTYYADSVKGRFTISRDNAKNTVFLQMNSLKRKIPRSITALLFTVNGGGSRSHDYWAQGTQVTVSS	low polyreactivity
QDQLVESGGGLVQAGGSLRLSCAASGRTFAFKSMGWYRQAPGKERELVAAIRWSGGTTYYADSVKGRFTISRDNANNTVYLQMNSLKPEDTAVYYCATGKWVYFRYNYWGLGTQVTVSS	high polyreactivity
QVQLVESGGGLGQAGGSLRLSCAASGRIFRYNAMGWYRQAPGKERELVAAITSGTGTNYADSVKGRFTISRDNAKNTVYLQMNSLKPEDTAVYYCNKVRKSYRYDYWGQGTQVTVSS	low polyreactivity
QVQLVESGGGLVQAGGSLRLSCAASGRIFRKNAMGWYRQAPGKERELVAAITSSGNTYYADSVKGRFTISRDNAKNTVYFQMNSLKPEDTAVYYCAARLKWLNRYGYDYWGQGTQVTVSS	low polyreactivity
QVQLVESGGGLVQAGGSLRLSCAASGRTFPAYAMGWYRQAPRKERELVARISYSGGNTYYADSVKGRFTISRDNAKNTVYLQMNSLKPEDTAVYYCAATRSHYPYRSGGDYWGQGTQVTVSS	low polyreactivity
QVQLVESGGGIFQAGGSLRLSCAASGRIYNYYAMGWTRQAPGQEREFVAAITRSGGRPYYADSVKGRFTISRDKGKNTVYLLMNSLKPEDTAVYYFAAPFGTYAYDYWGQGTLVTVSS	high polyreactivity
QVQLVESGGGLVQAGGSLRLSCAASGSTFVPYTMGWYRQAPGKERELVAVITSGGSTNYADSVKGRFTISRDNAKNTVYLQMNSLKPEDTAVYYCAAYGGTHYTYRYDYWGQGTQVTVSS	high polyreactivity
QVQLVESGGGLVQAGGSLSLICAASGFIFLYYAMGWYRQAPGKERELVADISRGADTKYADSVKGRFTISRDNAKNTVYLQMNSLKPEDTAVYYCATDITTFWFPYPGVELGYWGQGTQVTVSS	low polyreactivity
QVQLVESGGGLVQAGGSLRLSCPASGSTQHYYVKAWYRQAQGKERELVAAITWSGVSTYYADSVKGRFTISRDNAKNTVYLQMNSLKPEDTAVYYCAKRIFTSARLNYWGKGTQVTVSS	high polyreactivity
QVQLVESGGGLVQAGGSLRLSCAASGYIFAINAMGWYRQAPGKERELVAAIRSGGRTYYADSVKGRFTISRDKAKNTVYLQMNSLKPEDTAVYYCNAGGKWIGSDYWGQGTQVTVSS	high polyreactivity
QVQLVESGGGLVQAGGSLRLSCAASGLTFYGNAMGWYRQAPGKERELVAAITSNGGSTYYADSVKGRFTISRDNAKNTVYLQMISLKPEDTAVYYCNVDTGYDYWYPGYGYWGQGTQVTVSS	low polyreactivity
QVQLVESGGGLVQAGGSLRLSCAASGRTFYRYAMGWYRQAPGKERELVASITWSGGSTYYADSVKGRFTISRDNAKNTVYLQMNSLKPEDTAVYYCAAISAVTLRGYYYWGQGTQVTVSS	high polyreactivity
QVQLVESGGGLVQAGGSLRLSCAASGITIVRYAMGWYRQAPGKERELVAAINRSGGSTYYADSVKGRFTISRDNAKNTVYLQMNSLKPEDTAVYYCAARLYGKYDPPGYYYWGQVTQVTVSS	high polyreactivity
